Publication PMC13070007 (2025)
Where a chain is given by its changes, count along the chain named. Blank lines part the entries; values can stand above or below the binder they belong to.

Columns and labels:
Assay in all cases: SPR
[1] = target: KFNM
[2] = target: 28K30K32R
[3] = target: 30K32R113R
[4] = target: 30K32R56G

Kd [1]: 173 nM
Kd [2]: 952 nM
B1: TRBC1 protein (recombinant) (natural protein)
chain: DLNKVFPPEVAVFEPSEAEISHTQKATLVCLATGFFPDHVELSWWVNGKEVHSGVSTDPQPLKEQPALNDSRYCLSSRLRVSATFWQNPRNHFRCQVQFYGLSENDEWTQDRAKPVTQIVSAEAWGRADCGFTSVSYQQGVLSA

Kd [3]: 41 nM
Kd [1]: 61 nM
Kd [2]: 30 nM
Kd [4]: 46 nM
B2: TRBC2 protein (recombinant) (natural protein)
chain: B1 chain with N3K, K4N, E9K, F36Y, V135E
